Measurements from article PMC7393090.

Target: tau Venus BiFC constructs (UniProt P10636)
Experiment: split reporter (BiFC, NanoBiT); Venus BiFC; co-culture of HEK293 cells transfected with the VN construct and cells transfected with the VC construct (50,000 cells each per ml, 48 h); flow cytometry, cells above 120 fluorescence units are positive; also run after treatment with anle138b 1 µM, EGCG 0.1 µM, fulvic acid 37 µM or dynasore 10 µM

Question: For “tau Venus BiFC constructs (from UniProt P10636 1-758) (natural protein)”, which percent of BiFC positive cells (co-culture) is on record?
Answer: The percent of BiFC positive cells (co-culture) was 3.9%.
